Data set [1] addresses gastrin releasing peptide receptor (GRP-R) (human) (UniProt P30550). Kind of data set: saturation binding on PC-3 cells.
The target is the same in data set [2]. As to the kind of experiment: receptor autoradiography with 177Lu-L70.
A further data set has as its target mouse GRP-R (mouse) (UniProt P21729). As to the kind of experiment: receptor autoradiography with 177Lu-L70.
Data set [3] deals with human bombesin receptor subtype 3 (BB3-R) (human) (UniProt P32247). Kind of data set: receptor autoradiography with 177Lu-L70.
Data set [4] addresses human neuromedin-B preferring receptor (NMB-R) (human) (UniProt P28336). As to the kind of experiment: receptor autoradiography with 177Lu-L70.
Data set [5] concerns human PC-3 nude mouse model. In kind it is in vivo. As for the experimental part:
For biodistribution studies, the radiolabeled compounds were prepared as described above except that a 1:1 molar ratio of ligand to Lutetium was used to guarantee complete chelation of all starting ligand. The HPLC peak containing the resulting ^177Lu complex was collected in 1 mL of 9:1 Bacteriostatic saline/ASCOR L500® solution containing 0.1% HSA, and the organic solvents were removed using a speed-vacuum device. The remaining solution was further diluted to the required radioconcentration using Bacteriostatic saline/ASCOR L500® Ascorbic Acid Injection USP mixed in a 9 to 1 [v/v]) ratio. The radiochemical purity of all samples was […].
10-50 μCi of the HPLC purified compounds were administered to each mouse by i.v. tail vein injection, n=4 per group. […] Radioactivity was assayed in a gamma counter. The data was expressed as percentage of the total administered radioactivity (% ID) for the urine combined with the bladder, as well as for the blood pool; and percentage of the total administered radioactivity per gram (% ID/g) for all the other tested organs.

For data set [6] the following is noted: breast cancer patients; cited from earlier work.

gastrin releasing peptide receptor (GRP-R) (human), sequence (P30550 whole entry): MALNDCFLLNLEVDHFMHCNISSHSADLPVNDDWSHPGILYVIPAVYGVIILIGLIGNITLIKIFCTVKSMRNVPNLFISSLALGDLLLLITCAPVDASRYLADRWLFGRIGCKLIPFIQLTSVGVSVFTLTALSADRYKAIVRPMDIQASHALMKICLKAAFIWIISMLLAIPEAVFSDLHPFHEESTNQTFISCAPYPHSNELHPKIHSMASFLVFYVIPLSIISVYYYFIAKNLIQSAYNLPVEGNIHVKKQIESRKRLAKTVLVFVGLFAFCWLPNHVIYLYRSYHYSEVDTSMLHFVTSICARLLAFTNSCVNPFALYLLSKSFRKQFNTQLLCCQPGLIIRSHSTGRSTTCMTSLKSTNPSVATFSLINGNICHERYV
human bombesin receptor subtype 3 (BB3-R) (human), sequence (P32247 whole entry): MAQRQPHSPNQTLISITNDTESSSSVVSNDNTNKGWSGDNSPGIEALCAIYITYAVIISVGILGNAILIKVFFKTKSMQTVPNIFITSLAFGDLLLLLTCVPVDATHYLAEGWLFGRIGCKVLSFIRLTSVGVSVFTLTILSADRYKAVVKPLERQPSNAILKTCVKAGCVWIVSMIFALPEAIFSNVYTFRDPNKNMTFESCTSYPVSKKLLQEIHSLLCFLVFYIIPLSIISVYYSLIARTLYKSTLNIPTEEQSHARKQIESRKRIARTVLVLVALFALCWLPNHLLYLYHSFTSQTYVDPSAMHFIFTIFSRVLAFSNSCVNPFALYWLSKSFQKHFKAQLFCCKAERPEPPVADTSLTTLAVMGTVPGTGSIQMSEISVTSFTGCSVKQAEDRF
mouse GRP-R (mouse), sequence (P21729 whole entry): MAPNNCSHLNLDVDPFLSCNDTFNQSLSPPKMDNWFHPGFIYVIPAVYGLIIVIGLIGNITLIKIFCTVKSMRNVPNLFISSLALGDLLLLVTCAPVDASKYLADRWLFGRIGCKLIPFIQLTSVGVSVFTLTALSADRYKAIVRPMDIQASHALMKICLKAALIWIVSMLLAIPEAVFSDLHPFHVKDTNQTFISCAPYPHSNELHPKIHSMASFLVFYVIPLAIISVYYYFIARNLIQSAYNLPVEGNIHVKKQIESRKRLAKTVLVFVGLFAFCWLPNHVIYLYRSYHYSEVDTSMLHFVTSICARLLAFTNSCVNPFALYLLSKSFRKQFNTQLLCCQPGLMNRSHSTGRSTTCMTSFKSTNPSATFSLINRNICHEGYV
human neuromedin-B preferring receptor (NMB-R) (human), sequence (P28336 whole entry): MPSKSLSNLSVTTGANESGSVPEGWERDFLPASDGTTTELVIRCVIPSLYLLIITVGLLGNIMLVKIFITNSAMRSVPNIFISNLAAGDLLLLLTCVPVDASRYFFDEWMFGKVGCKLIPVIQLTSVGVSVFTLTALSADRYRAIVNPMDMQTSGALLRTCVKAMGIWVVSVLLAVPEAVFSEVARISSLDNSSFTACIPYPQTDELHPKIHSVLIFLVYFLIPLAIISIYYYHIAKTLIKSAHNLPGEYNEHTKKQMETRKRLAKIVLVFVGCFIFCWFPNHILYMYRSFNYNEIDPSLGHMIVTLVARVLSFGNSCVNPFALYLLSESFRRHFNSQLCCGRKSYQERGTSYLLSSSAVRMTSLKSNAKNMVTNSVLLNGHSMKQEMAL

As for 177Lu-L70 (peptide), in data set [1], the Binding capacity (Bmax) (fmoles/1 × 10^6 cells) is 408, the Kd was 0.44 nM and the Receptors/cell (receptors/cell) amounted to 245000. Moreover, in data set [2], the tissues labelled / tissues tested (of 4 (Prostate Ca)) was determined as 4; the tissues labelled / tissues tested (of 5 (Chronic pancreatitis, acini)) was 5; the tissues labelled / tissues tested (of 6 (Bronchial carcinoid)) was found to be 2; the tissues labelled / tissues tested (of 6 (Renal Ca)) is 5. Moreover, in data set [2], the tissues labelled / tissues tested (of 7 (Colon Ca, smooth muscle)) is 7; the tissues labelled / tissues tested (of 7 (Colon Ca, tumor)) amounted to 3; the tissues labelled / tissues tested (of 7 (Human pancreas, acini)) turned out to be 1; the tissues labelled / tissues tested (of 8 (Mammary Ca)) is 8. In addition, the tissues labelled / tissues tested (of 4 (Mouse pancreas, acini)) with mouse GRP-R (mouse) worked out at 4. In data set [3], this compound showed a tissues labelled / tissues tested (of 6 (Bronchial carcinoid)) of 0. Also, the tissues labelled / tissues tested (of 8 (Ileal carcinoid)) in data set [4] turned out to be 8.
Consider `CC1(N(CC(=O)O)CC(=O)O)CN(CC(=O)O)[C@@H]2CCCC[C@H]2N(CC(=O)O)C1` [XX100], for which the “Blood % ID (7 d column, *72 h timepoint)” value in data set [5] (177Lu complex, i.v., PC-3 nude mouse, 72 h) is recorded as 0.00 ± 0.00 % ID. In addition, the “clearance and localization of radioactivity” value in data set [5] (Lu-177 complexes, human PC-3 nude mouse model, 1 h, 1 and 7 days) is reported as “rapidly cleared from the body with little residual localization in any organs or tissue”.
On to Herceptin®, for which, in data set [6], the overall response is listed as 9%.

In general, Kd refers to the free concentration of one partner at which half of the binding sites on the other are occupied at equilibrium, for simple one-to-one binding. A lower Kd goes with a tighter complex.

These data come from patent US20110250133A1, “GASTRIN […] PEPTIDE COMPOUNDS” (priority 2003, published 2011).
